Starred links: 1 amine or outer side, 2 acyl side, 3 side chain; linkers in the order of their positions; H or OH if unused. Non-standard residues stand in square brackets, D forms with d. *: point of attachment. Lys(Me2) = CN(C)CCCC[C@H](N)C(=O)O; tBuAla = CC(C)(C)C[C@H](N)C(=O)O; 4Pal = N[C@@H](Cc1ccncc1)C(=O)O; Cha = N[C@@H](CC1CCCCC1)C(=O)O; d(αMeP) = C[C@]1(C(=O)O)CCCN1; Suc = O=C(CCC(=O)[*:2])[*:1]; dIva = CC[C@@](C)(N)C(=O)O; Isobutyryl = CC(C)C(=O)*; Iva = CC[C@](C)(N)C(=O)O; Nle = CCCC[C@H](N)C(=O)O; Dab = NCC[C@H](N)C(=O)O; Aib = CC(C)(N)C(=O)O; Ahx = NCCCCCC(=O)O; GABA = NCCCC(=O)O
B1: Ac-[D-Pro24, Cha27,28,36, Lys(Me2)30, Aib31]-PYY(23-36) (peptide)
peptide: Ac-S[dP]RH[Cha][Cha]N[Lys(Me2)][Aib]TRQR[Cha]-NH2
SMILES: CC(=O)N[C@@H](CO)C(=O)N1CCC[C@@H]1C(=O)N[C@@H](CCCNC(=N)N)C(=O)N[C@@H](Cc1c[nH]cn1)C(=O)N[C@@H](CC1CCCCC1)C(=O)N[C@@H](CC1CCCCC1)C(=O)N[C@@H](CC(N)=O)C(=O)N[C@@H](CCCCN(C)C)C(=O)NC(C)(C)C(=O)N[C@H](C(=O)N[C@@H](CCCNC(=N)N)C(=O)N[C@@H](CCC(N)=O)C(=O)N[C@@H](CCCNC(=N)N)C(=O)N[C@@H](CC1CCCCC1)C(N)=O)[C@@H](C)O
B2: Ac-[D-Pro24, Iva26, Cha27,28,36, Aib31]-PYY(23-36) (peptide)
peptide: Ac-S[dP]R[Iva][Cha][Cha]NL[Aib]TRQR[Cha]-NH2
SMILES: CC[C@](C)(NC(=O)[C@H](CCCNC(=N)N)NC(=O)[C@H]1CCCN1C(=O)[C@H](CO)NC(C)=O)C(=O)N[C@@H](CC1CCCCC1)C(=O)N[C@@H](CC1CCCCC1)C(=O)N[C@@H](CC(N)=O)C(=O)N[C@@H](CC(C)C)C(=O)NC(C)(C)C(=O)N[C@H](C(=O)N[C@@H](CCCNC(=N)N)C(=O)N[C@@H](CCC(N)=O)C(=O)N[C@@H](CCCNC(=N)N)C(=O)N[C@@H](CC1CCCCC1)C(N)=O)[C@@H](C)O
B3: Ac-[D-Pro24, D-Iva25, Cha27,28,36, Aib31]-PYY(23-36) (peptide)
peptide: Ac-S[dP][dIva]H[Cha][Cha]NL[Aib]TRQR[Cha]-NH2
SMILES: CC[C@@](C)(NC(=O)[C@H]1CCCN1C(=O)[C@H](CO)NC(C)=O)C(=O)N[C@@H](Cc1c[nH]cn1)C(=O)N[C@@H](CC1CCCCC1)C(=O)N[C@@H](CC1CCCCC1)C(=O)N[C@@H](CC(N)=O)C(=O)N[C@@H](CC(C)C)C(=O)NC(C)(C)C(=O)N[C@H](C(=O)N[C@@H](CCCNC(=N)N)C(=O)N[C@@H](CCC(N)=O)C(=O)N[C@@H](CCCNC(=N)N)C(=O)N[C@@H](CC1CCCCC1)C(N)=O)[C@@H](C)O
B4: 3-Carboxypropionyl-[Acp22, D-Pro24, Cha27,36, Leu(Me)28, Lys30, Aib31]-PYY(22-36) (peptide)
peptide: Suc-[Ahx]S[dP]RH[Cha][tBuAla]NK[Aib]TRQR[Cha]-NH2
SMILES: C[C@@H](O)[C@H](NC(=O)C(C)(C)NC(=O)[C@H](CCCCN)NC(=O)[C@H](CC(N)=O)NC(=O)[C@H](CC(C)(C)C)NC(=O)[C@H](CC1CCCCC1)NC(=O)[C@H](Cc1c[nH]cn1)NC(=O)[C@H](CCCNC(=N)N)NC(=O)[C@H]1CCCN1C(=O)[C@H](CO)NC(=O)CCCCCNC(=O)CCC(=O)O)C(=O)N[C@@H](CCCNC(=N)N)C(=O)N[C@@H](CCC(N)=O)C(=O)N[C@@H](CCCNC(=N)N)C(=O)N[C@@H](CC1CCCCC1)C(N)=O
B5: Isobutanoyl-[Glu23, D-Pro24, Pya(4)26, Cha27,36, Leu(Me)28, Lys30, Aib31]-PYY(23-36) (peptide)
peptide: Isobutyryl-E[dP]R[4Pal][Cha][tBuAla]NK[Aib]TRQR[Cha]-NH2
SMILES: CC(C)C(=O)N[C@@H](CCC(=O)O)C(=O)N1CCC[C@@H]1C(=O)N[C@@H](CCCNC(=N)N)C(=O)N[C@@H](Cc1ccncc1)C(=O)N[C@@H](CC1CCCCC1)C(=O)N[C@@H](CC(C)(C)C)C(=O)N[C@@H](CC(N)=O)C(=O)N[C@@H](CCCCN)C(=O)NC(C)(C)C(=O)N[C@H](C(=O)N[C@@H](CCCNC(=N)N)C(=O)N[C@@H](CCC(N)=O)C(=O)N[C@@H](CCCNC(=N)N)C(=O)N[C@@H](CC1CCCCC1)C(N)=O)[C@@H](C)O
B6: Ac-[GABA24, Cha27,28,36, Aib31]-PYY(23-36) (peptide)
peptide: Ac-S[GABA]RH[Cha][Cha]NL[Aib]TRQR[Cha]-NH2
SMILES: CC(=O)N[C@@H](CO)C(=O)NCCCC(=O)N[C@@H](CCCNC(=N)N)C(=O)N[C@@H](Cc1c[nH]cn1)C(=O)N[C@@H](CC1CCCCC1)C(=O)N[C@@H](CC1CCCCC1)C(=O)N[C@@H](CC(N)=O)C(=O)N[C@@H](CC(C)C)C(=O)NC(C)(C)C(=O)N[C@H](C(=O)N[C@@H](CCCNC(=N)N)C(=O)N[C@@H](CCC(N)=O)C(=O)N[C@@H](CCCNC(=N)N)C(=O)N[C@@H](CC1CCCCC1)C(N)=O)[C@@H](C)O
B7: Ac-[D-Pro24, Cha27,28,36, Dab30, Aib31]-PYY(23-36) (peptide)
peptide: Ac-S[dP]RH[Cha][Cha]N[Dab][Aib]TRQR[Cha]-NH2
SMILES: CC(=O)N[C@@H](CO)C(=O)N1CCC[C@@H]1C(=O)N[C@@H](CCCNC(=N)N)C(=O)N[C@@H](Cc1c[nH]cn1)C(=O)N[C@@H](CC1CCCCC1)C(=O)N[C@@H](CC1CCCCC1)C(=O)N[C@@H](CC(N)=O)C(=O)N[C@@H](CCN)C(=O)NC(C)(C)C(=O)N[C@H](C(=O)N[C@@H](CCCNC(=N)N)C(=O)N[C@@H](CCC(N)=O)C(=O)N[C@@H](CCCNC(=N)N)C(=O)N[C@@H](CC1CCCCC1)C(N)=O)[C@@H](C)O
B8: Ac-[D-Pro24, Iva25, Cha27,28,36, Aib31]-PYY(23-36) (peptide)
peptide: Ac-S[dP][Iva]H[Cha][Cha]NL[Aib]TRQR[Cha]-NH2
SMILES: CC[C@](C)(NC(=O)[C@H]1CCCN1C(=O)[C@H](CO)NC(C)=O)C(=O)N[C@@H](Cc1c[nH]cn1)C(=O)N[C@@H](CC1CCCCC1)C(=O)N[C@@H](CC1CCCCC1)C(=O)N[C@@H](CC(N)=O)C(=O)N[C@@H](CC(C)C)C(=O)NC(C)(C)C(=O)N[C@H](C(=O)N[C@@H](CCCNC(=N)N)C(=O)N[C@@H](CCC(N)=O)C(=O)N[C@@H](CCCNC(=N)N)C(=O)N[C@@H](CC1CCCCC1)C(N)=O)[C@@H](C)O
B9: Ac-[D-αMePro24, Cha27,28,36, Aib31]-PYY(23-36) (peptide)
peptide: Ac-S[d(αMeP)]RH[Cha][Cha]NL[Aib]TRQR[Cha]-NH2
SMILES: CC(=O)N[C@@H](CO)C(=O)N1CCC[C@]1(C)C(=O)N[C@@H](CCCNC(=N)N)C(=O)N[C@@H](Cc1c[nH]cn1)C(=O)N[C@@H](CC1CCCCC1)C(=O)N[C@@H](CC1CCCCC1)C(=O)N[C@@H](CC(N)=O)C(=O)N[C@@H](CC(C)C)C(=O)NC(C)(C)C(=O)N[C@H](C(=O)N[C@@H](CCCNC(=N)N)C(=O)N[C@@H](CCC(N)=O)C(=O)N[C@@H](CCCNC(=N)N)C(=O)N[C@@H](CC1CCCCC1)C(N)=O)[C@@H](C)O
B10: Ac-[D-Pro24, Cha27,28,36, D-Iva29, Aib31]-PYY(23-36) (peptide)
peptide: Ac-S[dP]RH[Cha][Cha][dIva]L[Aib]TRQR[Cha]-NH2
SMILES: CC[C@@](C)(NC(=O)[C@H](CC1CCCCC1)NC(=O)[C@H](CC1CCCCC1)NC(=O)[C@H](Cc1c[nH]cn1)NC(=O)[C@H](CCCNC(=N)N)NC(=O)[C@H]1CCCN1C(=O)[C@H](CO)NC(C)=O)C(=O)N[C@@H](CC(C)C)C(=O)NC(C)(C)C(=O)N[C@H](C(=O)N[C@@H](CCCNC(=N)N)C(=O)N[C@@H](CCC(N)=O)C(=O)N[C@@H](CCCNC(=N)N)C(=O)N[C@@H](CC1CCCCC1)C(N)=O)[C@@H](C)O
B11: Ac-[D-Pro24, D-Iva26, Cha27,28,36, Aib31]-PYY(23-36) (peptide)
peptide: Ac-S[dP]R[dIva][Cha][Cha]NL[Aib]TRQR[Cha]-NH2
SMILES: CC[C@@](C)(NC(=O)[C@H](CCCNC(=N)N)NC(=O)[C@H]1CCCN1C(=O)[C@H](CO)NC(C)=O)C(=O)N[C@@H](CC1CCCCC1)C(=O)N[C@@H](CC1CCCCC1)C(=O)N[C@@H](CC(N)=O)C(=O)N[C@@H](CC(C)C)C(=O)NC(C)(C)C(=O)N[C@H](C(=O)N[C@@H](CCCNC(=N)N)C(=O)N[C@@H](CCC(N)=O)C(=O)N[C@@H](CCCNC(=N)N)C(=O)N[C@@H](CC1CCCCC1)C(N)=O)[C@@H](C)O
B12: Ac-[Glu23, D-Pro24, Nle25, Pya(4)26, Cha27,28,36, Lys30, Aib31]-PYY(23-36) (peptide)
peptide: Ac-E[dP][Nle][4Pal][Cha][Cha]NK[Aib]TRQR[Cha]-NH2
SMILES: CCCC[C@H](NC(=O)[C@H]1CCCN1C(=O)[C@H](CCC(=O)O)NC(C)=O)C(=O)N[C@@H](Cc1ccncc1)C(=O)N[C@@H](CC1CCCCC1)C(=O)N[C@@H](CC1CCCCC1)C(=O)N[C@@H](CC(N)=O)C(=O)N[C@@H](CCCCN)C(=O)NC(C)(C)C(=O)N[C@H](C(=O)N[C@@H](CCCNC(=N)N)C(=O)N[C@@H](CCC(N)=O)C(=O)N[C@@H](CCCNC(=N)N)C(=O)N[C@@H](CC1CCCCC1)C(N)=O)[C@@H](C)O
B13: Ac-[Glu23, D-Pro24, Pya(4)26, Cha27,36, Leu(Me)28, Lys30, Aib31]-PYY(23-36) (peptide)
peptide: Ac-E[dP]R[4Pal][Cha][tBuAla]NK[Aib]TRQR[Cha]-NH2
SMILES: CC(=O)N[C@@H](CCC(=O)O)C(=O)N1CCC[C@@H]1C(=O)N[C@@H](CCCNC(=N)N)C(=O)N[C@@H](Cc1ccncc1)C(=O)N[C@@H](CC1CCCCC1)C(=O)N[C@@H](CC(C)(C)C)C(=O)N[C@@H](CC(N)=O)C(=O)N[C@@H](CCCCN)C(=O)NC(C)(C)C(=O)N[C@H](C(=O)N[C@@H](CCCNC(=N)N)C(=O)N[C@@H](CCC(N)=O)C(=O)N[C@@H](CCCNC(=N)N)C(=O)N[C@@H](CC1CCCCC1)C(N)=O)[C@@H](C)O
B14: Ac-[Acp22, Glu23, D-Pro24, Cha27,28,36, Lys30, Aib31]-PYY(22-36) (peptide)
peptide: Ac-[Ahx]E[dP]RH[Cha][Cha]NK[Aib]TRQR[Cha]-NH2
SMILES: CC(=O)NCCCCCC(=O)N[C@@H](CCC(=O)O)C(=O)N1CCC[C@@H]1C(=O)N[C@@H](CCCNC(=N)N)C(=O)N[C@@H](Cc1c[nH]cn1)C(=O)N[C@@H](CC1CCCCC1)C(=O)N[C@@H](CC1CCCCC1)C(=O)N[C@@H](CC(N)=O)C(=O)N[C@@H](CCCCN)C(=O)NC(C)(C)C(=O)N[C@H](C(=O)N[C@@H](CCCNC(=N)N)C(=O)N[C@@H](CCC(N)=O)C(=O)N[C@@H](CCCNC(=N)N)C(=O)N[C@@H](CC1CCCCC1)C(N)=O)[C@@H](C)O

What follows are binders tested against human Y2 receptor (human) (UniProt P49146) (assay: RBA: [125I]-PYY displacement, hY2R/CHO membranes).
human Y2 receptor (human), sequence (P49146 whole entry): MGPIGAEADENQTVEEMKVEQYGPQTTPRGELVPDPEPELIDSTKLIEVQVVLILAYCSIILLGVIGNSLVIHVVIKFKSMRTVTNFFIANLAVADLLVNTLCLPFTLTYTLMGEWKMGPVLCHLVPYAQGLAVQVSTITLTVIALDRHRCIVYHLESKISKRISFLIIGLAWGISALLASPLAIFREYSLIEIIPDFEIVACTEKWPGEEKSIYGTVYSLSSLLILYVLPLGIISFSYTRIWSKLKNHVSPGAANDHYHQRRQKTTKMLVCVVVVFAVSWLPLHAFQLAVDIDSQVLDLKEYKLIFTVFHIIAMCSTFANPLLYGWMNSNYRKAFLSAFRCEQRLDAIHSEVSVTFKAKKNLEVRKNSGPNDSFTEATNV

IC50 Ratio (vs PYY(3-36))	Binder
0.8	B1
5.2	B2
14	B3
1.7	B4
3.3	Piperidinocarbonyl-E[dP]R[4Pal][Cha][Aib]NK[Aib]TRQR[Cha]-NH2 [Piperidinocarbonyl-[Glu23, D-Pro24, Pya(4)26, Cha27,36, Aib28,31, Lys30]-PYY(23-36)]
0.43	B5
5.8	B6
2.6	B7
4.5	B8
4.5	B9
71	B10
19	B11
2.3	B12
0.48	B13
1.7	B14

What follows are binders tested against human Y2 receptor (human) (UniProt P49146) (assay: cell-based or functional assay).

GBA EC50 Ratio (vs PYY(3-36)), [35S]GTPγS	Binder
0.7	B1
4.2	B2
11	B3
1.2	B4
2.4	Piperidinocarbonyl-E[dP]R[4Pal][Cha][Aib]NK[Aib]TRQR[Cha]-NH2 [Piperidinocarbonyl-[Glu23, D-Pro24, Pya(4)26, Cha27,36, Aib28,31, Lys30]-PYY(23-36)]
0.88	B5
3	B6
1.6	B7
3.7	B8
2.6	B9
37	B10
13	B11
1.3	B12
0.86	B13
1.1	B14

Reference: patent US20120172293A1 (Takeda / Millennium, published 2012)
